Assay results taken from ChEMBL document CHEMBL1156055, “Synthetic substrate for application in both high and low throughput assays for botulinum neurotoxin B protease inhibitors” (Bioorg Med Chem Lett, 2009).

Substrate: COc1ccc2c(CC(=O)NCCCC[C@H](NC(=O)CNC(=O)[C@H](C)NC(=O)[C@H](CCC(N)=O)NC(=O)[C@H](CC(C)C)NC(=O)[C@H](C)NC(=O)[C@H](CC(=O)O)NC(=O)[C@H](C)NC(=O)[C@H](CCCNC(=N)N)NC(=O)[C@H](CC(=O)O)NC(=O)[C@H](CC(=O)O)NC(=O)[C@H](CC(C)C)NC(=O)[C@H](CCC(=O)O)NC(=O)[C@H](CO)NC(=O)[C@H](CC(C)C)NC(=O)[C@H](CCCCN)NC(=O)[C@H](CCC(N)=O)NC(=O)[C@H](CC(=O)O)NC(=O)[C@H](CCCNC(=N)N)NC(=O)[C@H](CCC(=O)O)NC(C)=O)C(=O)N[C@@H](CO)C(=O)N[C@@H](CCC(N)=O)C(=O)N[C@@H](CNc3ccc([N+](=O)[O-])cc3[N+](=O)[O-])C(=O)N[C@@H](CCC(=O)O)C(=O)N[C@@H](CO)C(=O)N[C@@H](CO)C(=O)N[C@@H](C)C(=O)N[C@@H](C)C(=O)N[C@@H](CCCCN)C(=O)N[C@@H](CC(C)C)C(=O)N[C@@H](CCCCN)C(=O)N[C@@H](CCCNC(=N)N)C(=O)N[C@@H](CCCCN)C(=O)N[C@@H](Cc3ccc(O)cc3)C(=O)N[C@@H](Cc3c[nH]c4ccccc34)C(=O)N[C@@H](Cc3c[nH]c4ccccc34)C(=O)N[C@@H](CCCCN)C(=O)N[C@@H](CC(N)=O)C(=O)N[C@@H](CC(C)C)C(=O)N[C@@H](CCCCN)C(N)=O)cc(=O)oc2c1
Assay: Activity at Clostridium botulinum BoNT/B protease

B1: Botulinum neurotoxin type B (Clostridium botulinum), P10844 (protein)
chain: MPVTINNFNYNDPIDNNNIIMMEPPFARGTGRYYKAFKITDRIWIIPERYTFGYKPEDFNKSSGIFNRDVCEYYDPDYLNTNDKKNIFLQTMIKLFNRIKSKPLGEKLLEMIINGIPYLGDRRVPLEEFNTNIASVTVNKLISNPGEVERKKGIFANLIIFGPGPVLNENETIDIGIQNHFASREGFGGIMQMKFCPEYVSVFNNVQENKGASIFNRRGYFSDPALILMHELIHVLHGLYGIKVDDLPIVPNEKKFFMQSTDAIQAEELYTFGGQDPSIITPSTDKSIYDKVLQNFRGIVDRLNKVLVCISDPNININIYKNKFKDKYKFVEDSEGKYSIDVESFDKLYKSLMFGFTETNIAENYKIKTRASYFSDSLPPVKIKNLLDNEIYTIEEGFNISDKDMEKEYRGQNKAINKQAYEEISKEHLAVYKIQMCKSVKAPGICIDVDNEDLFFIADKNSFSDDLSKNERIEYNTQSNYIENDFPINELILDTDLISKIELPSENTESLTDFNVDVPVYEKQPAIKKIFTDENTIFQYLYSQTFPLDIRDISLTSSFDDALLFSNKVYSFFSMDYIKTANKVVEAGLFAGWVKQIVNDFVIEANKSNTMDKIADISLIVPYIGLALNVGNETAKGNFENAFEIAGASILLEFIPELLIPVVGAFLLESYIDNKNKIIKTIDNALTKRNEKWSDMYGLIVAQWLSTVNTQFYTIKEGMYKALNYQAQALEEIIKYRYNIYSEKEKSNINIDFNDINSKLNEGINQAIDNINNFINGCSVSYLMKKMIPLAVEKLLDFDNTLKKNLLNYIDENKLYLIGSAEYEKSKVNKYLKTIMPFDLSIYTNDTILIEMFNKYNSEILNNIILNLRYKDNNLIDLSGYGAKVEVYDGVELNDKNQFKLTSSANSKIRVTQNQNIIFNSVFLDFSVSFWIRIPKYKNDGIQNYIHNEYTIINCMKNNSGWKISIRGNRIIWTLIDINGKTKSVFFEYNIREDISEYINRWFFVTITNNLNNAKIYINGKLESNTDIKDIREVIANGEIIFKLDGDIDRTQFIWMKYFSIFNTELSQSNIEERYKIQSYSEYLKDFWGNPLMYNKEYYMFNAGNKNSYIKLKKDSPVGEILTRSKYNQNSKYINYRDLYIGEKFIIRRKSNSQSINDDIVRKEDYIYLDFFNLNQEWRVYTYKYFKKEEEKLFLAPISDSDEFYNTIQIKEYDEQPTYSCQLLFKKDEESTDEIGLIGIHRFYESGIVFEEYKDYFCISKWYLKEVKRKPYNLKLGCNWQFIPKDEGWTE
Km: 70.9 µM | kcat: 3.81 s⁻¹
